Measurements: publication PMC10622577, “Structural basis for stabilisation of the RAD51 nucleoprotein filament by BRCA2” (Nature Communications, 2023)
“Also recorded” adds a separate entry of the source. Where no end group is shown, it is not given here. MBP = maltose-binding protein (N-terminal fusion tag)

Tests used:
RAD51–ssDNA NPF = assay: EMSA of MBP-fusion TR2 mutants binding the RAD51-ssDNA NPF; design: species or system human; details: for binding of MBP-TR2 mutant to the RAD51 NPF: ssDNA 60 nt, His6-MBP-TR2 5 min, room temperature, 25 mM HEPES pH 7.5, 150 mM NaCl, 2 mM ATP, 5 mM CaCl2, repeated once
From the text: The local resolution at the TR2 site was lower than for the global map, which complicated the model fitting for the peptide. Fitting with the correct sequence register was guided by the density of the large side chains in the highly conserved TR2 region 3296-KAFQPPR-3302 (Fig. 3A). To validate our molecular model of BRCA2 TR2 association with the RAD51 NPF, we performed a mutational analysis of the RAD51–TR2 interface, targeting residues that are predicted by the structure to be important for the RAD51-TR2 interaction (Fig. 4A, B). We generated TR2 mutants as Maltose-Binding Protein (MBP) fusion proteins (Supplementary Fig. 1) and measured by EMSA their ability to bind the RAD51 NPF.
Fig. 4 Structure-based mutational analysis of the BRCA2 TR2-RAD51 interface. A Multiple sequence alignment of BRCA2 TR2 sequences, coloured according to residue type (Hse: Homo sapiens; Gga: Gallus gallus; Xla: Xenopus laevis; Dre: […]). B Drawing of TR2 and RAD51 amino acids targeted for mutagenesis. Drawing style as in D–F of Fig. 3. C–E EMSA analysis of RAD51–ssDNA NPF binding by MBP-fusion TR2 mutants K3296A, Q3299A, R3302A (C); 3A (K3296A, Q3299, R3302A), 3D (K3296D, Q3299D, R3302D) (D); S3291A, F3298A (E). The TR2 peptide was used as a control. EMSA experiments repeated once. Source data are provided as a Source Data file.
An E.coli codon-optimised gene fragment encoding residues D3260 to Y3308 of human BRCA2 was synthesised (IDT) with flanking BamHI and HindIII restriction sites and ligated into the pMAT11 expression vector[44] (Addgene plasmid #112592) to express BRCA2 TR2 as a dual-tag His6-MBP (Maltose-Binding Protein) fusion protein. pMAT11 constructs for expression of BRCA2 TR2 mutants S3291A, F3298A, K3296A, Q3299A, R3302A, the triple K3296, Q3299, […] alanine (3A) and aspartic acid (3D) mutants were produced in the same way as the wild-type construct.
All His6-MBP-BRCA2 TR2 fusion proteins were expressed and purified in an identical manner. pMat11-His6-MBP-TR2 constructs were transformed into E.coli BL21(DE3)Rosetta2 and transformed cells were used to inoculate 2YT growth medium supplemented with 50 μg/ml ampicillin. Cells were cultured until an OD600 reading of 0.7 before induction with 0.5 mM IPTG. Cell pellets were resuspended in resuspension buffer and sonicated to lyse cells in the presence of EDTA-free protease inhibitor. Cell lysate supernatant was loaded on a 5-ml HisTrap HP column pre-equilibrated with His Buffer A before elution in 40% His Buffer B. Fractions containing the His6-MBP-BRCA2 TR2 protein were pooled and purified further by size-exclusion chromatography using a 16/600 Superdex S75 pg (Cytiva) column pre-equilibrated in storage buffer. To minimise the presence of proteolytically degraded protein, a single fraction at the front of the elution peak containing His6-MBP-TR2 was retained and concentrated to at least 100 μM before flash freezing in liquid nitrogen and storage at −80 °C.
To assess RAD51 nucleoprotein (NPF) formation, wild-type and mutant RAD51 proteins were incubated with DNA in buffer: 25 mM HEPES pH 7.5, 150 mM NaCl, 2 mM DTT, 2 mM ATP, 5 mM CaCl2 for 15 minutes at room temperature. For filament binding of the TR2 peptide or His6-MBP-TR2 protein, the RAD51 NPFs were incubated with TR2 for further 5 minutes at room temperature. For filament binding of BRC4, the BRC4 peptide was pre-mixed with RAD51 for 10 minutes at room temperature before addition of DNA. For experiments with mono-streptavidin (mSA)-capped DNA, mSA (Sigma) was added in 5× molar excess of biotin labels for 15 minutes at room temperature prior to the addition of RAD51. Concentrations are provided in figures and DNA sequences for each experiment are reported in Supplementary Table 1.
Before electrophoresis, samples were mixed with a 0.5:1 volume of 50% (w/v) sucrose solution and analysed on a pre-run 0.5% (w/v) agarose gel in 0.5× TB buffer at 35 V for 2.5 hours at 4 °C. […]

human RAD51, wild type [1] = target: T1, human RAD51, wild type (human, UniProt Q06609 1-339); assay: native gel or EMSA; TR2 peptide titrated on RAD51 NPFs pre-formed on fluorescein-labelled ss- or dsDNA; 25 mM HEPES pH 7.5, 150 mM NaCl, 2 mM DTT, 2 mM ATP, 5 mM CaCl2, room temperature, TR2 added for 5 minutes; 0.5% agarose gel at 4 °C; details: both partners purified
T1 construct: RAD51, human DNA-strand exchange protein; In all assays RAD51 stood as a nucleoprotein filament on ss- or dsDNA with ATP and CaCl2; probably the whole, untagged protein; also called WT RAD51; RAD51 NPF; source: E. coli BL21(DE3)Rosetta2, co-expressed with His6-MBP-BRCA2 BRC4, purified (HisTrap, heparin, SEC)
T1 sequence: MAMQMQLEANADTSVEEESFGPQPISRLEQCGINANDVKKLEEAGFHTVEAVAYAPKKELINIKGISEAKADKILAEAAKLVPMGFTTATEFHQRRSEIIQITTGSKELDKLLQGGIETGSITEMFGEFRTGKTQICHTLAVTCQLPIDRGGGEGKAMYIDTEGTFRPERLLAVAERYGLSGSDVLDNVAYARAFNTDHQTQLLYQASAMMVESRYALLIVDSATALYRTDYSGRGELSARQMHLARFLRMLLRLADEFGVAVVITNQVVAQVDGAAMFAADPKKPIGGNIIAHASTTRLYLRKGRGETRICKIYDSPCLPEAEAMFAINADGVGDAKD

human RAD51, wild type [2] = target: T1, human RAD51, wild type; assay: native gel or EMSA; His6-MBP-TR2 fusion proteins added for 5 minutes to RAD51–ssDNA NPFs; 25 mM HEPES pH 7.5, 150 mM NaCl, 2 mM DTT, 2 mM ATP, 5 mM CaCl2, room temperature; 0.5% agarose gel; details: both partners purified
RAD51;BRCA2 TR2 peptide [3] = target: T2, RAD51;BRCA2 TR2 peptide (Homo sapiens;Homo sapiens, UniProt Q06609;P51587 1-339;, |); assay: SPR; TR2 on preformed filament; ATP, Ca2+, Mg2+; EMSA: 25 mM HEPES pH 7.5, 150 mM NaCl, 2 mM DTT, 2 mM ATP, 5 mM CaCl2, room temperature; SPR: 25 mM HEPES pH 7.4, 100 mM NaCl, 2 mM DTT, 2 mM ATP, 5 mM CaCl2, 5 mM MgCl2; details: tags: untagged (co-expressed with His6-MBP-BRC4, pMBP4-RAD51);
RAD51;BRCA2 TR2 peptide [4] = target: T2, RAD51;BRCA2 TR2 peptide; assay: EMSA; TR2 enhances filament; ATP, Ca2+; EMSA: 25 mM HEPES pH 7.5, 150 mM NaCl, 2 mM DTT, 2 mM ATP, 5 mM CaCl2, room temperature; SPR: 25 mM HEPES pH 7.4, 100 mM NaCl, 2 mM DTT, 2 mM ATP, 5 mM CaCl2, 5 mM MgCl2; details: tags: untagged (co-expressed with His6-MBP-BRC4, pMBP4-RAD51);
RAD51;BRCA2 TR2 peptide [5] = target: T2, RAD51;BRCA2 TR2 peptide; assay: cryo-EM micrographs; TR2 1:0.5; filament bundling; EMSA: 25 mM HEPES pH 7.5, 150 mM NaCl, 2 mM DTT, 2 mM ATP, 5 mM CaCl2, room temperature; SPR: 25 mM HEPES pH 7.4, 100 mM NaCl, 2 mM DTT, 2 mM ATP, 5 mM CaCl2, 5 mM MgCl2; details: tags: untagged (co-expressed with His6-MBP-BRC4, pMBP4-RAD51);

Q: How did the “binding of MBP-TR2 mutant to the RAD51 NPF” value (RAD51–ssDNA NPF) turn out when “R3302A: His6-MBP fusion protein of BRCA2 TR2 mutant R3302A ({His6-MBP}-DDQKNCKKRRALDFLSRLPLPPPVSPICTFVSPAAQKAFQPPASCGTKY; cysteine pairing not given here)” was run?
A: modest decrease in filament binding

Q: With “F3298A: His6-MBP fusion protein of BRCA2 TR2 mutant F3298A ({His6-MBP}-DDQKNCKKRRALDFLSRLPLPPPVSPICTFVSPAAQKAAQPPRSCGTKY; cysteine pairing not given here)” as the molecule, how does the “binding of MBP-TR2 mutant to the RAD51 NPF” value (RAD51–ssDNA NPF) read?
A: abolished TR2 binding to the RAD51 NPF; also recorded: complete loss of TR2 binding

Q: “K3296A: His6-MBP fusion protein of BRCA2 TR2 mutant K3296A ({His6-MBP}-DDQKNCKKRRALDFLSRLPLPPPVSPICTFVSPAAQAAFQPPRSCGTKY; cysteine pairing not given here)” was tested. Which “binding of MBP-TR2 mutant to the RAD51 NPF” value (RAD51–ssDNA NPF) did it give?
A: modest decrease in filament binding

Q: “S3291A: His6-MBP fusion protein of BRCA2 TR2 mutant S3291A ({His6-MBP}-DDQKNCKKRRALDFLSRLPLPPPVSPICTFVAPAAQKAFQPPRSCGTKY; cysteine pairing not given here)” was tested. Which “binding of MBP-TR2 mutant to the RAD51 NPF” value (RAD51–ssDNA NPF) did it give?
A: drastically reduced

Q: What about the “residual binding of MBP-TR2 mutant to the RAD51 NPF” value (RAD51–ssDNA NPF; ssDNA, Fig. 4E) of the same molecule?
A: still able to associate with the filament; also recorded: retains a degree of binding to the filament

Q: With “Q3299A: His6-MBP fusion protein of BRCA2 TR2 mutant Q3299A ({His6-MBP}-DDQKNCKKRRALDFLSRLPLPPPVSPICTFVSPAAQKAFAPPRSCGTKY; cysteine pairing not given here)” as the molecule, how does the “binding of MBP-TR2 mutant to the RAD51 NPF” value (RAD51–ssDNA NPF) read?
A: increased association with the filament

B1: BRCA2 TR2 peptide spanning amino acids 3260 to 3308 (peptide, UniProt P51587 3260-3308, looked up)
peptide: DDQKNCKKRRALDFLSRLPLPPPVSPICTFVSPAAQKAFQPPRSCGTKY
notes: Only residues 3289 to 3304 are modelled in the PDB entries; source: synthetic peptide (synthesised commercially)
Q: Does B1 bind (human RAD51, wild type [1])?
A: binds

B2: His6-MBP-BRCA2 TR2 K3296A (domain or fragment, human, UniProt P51587 3260-3308, looked up)
chain: DDQKNCKKRRALDFLSRLPLPPPVSPICTFVSPAAQAAFQPPRSCGTKY
notes: BRCA2, human, TR2 motif, residues D3260 to Y3308; source: E. coli BL21(DE3)Rosetta2, purified (HisTrap, SEC); not shown: His6, N-terminal, kept; MBP, N-terminal, kept
Q: Does B2 bind (human RAD51, wild type [2])?
A: binds

B3: His6-MBP-BRCA2 TR2 Q3299A (domain or fragment, human, UniProt P51587 3260-3308, looked up)
chain: DDQKNCKKRRALDFLSRLPLPPPVSPICTFVSPAAQKAFAPPRSCGTKY
notes: as for B2
Q: Does B3 bind (human RAD51, wild type [2])?
A: binds

B4: His6-MBP-BRCA2 TR2 R3302A (domain or fragment, human, UniProt P51587 3260-3308, looked up)
chain: DDQKNCKKRRALDFLSRLPLPPPVSPICTFVSPAAQKAFQPPASCGTKY
notes: as for B2
Q: Does B4 bind (human RAD51, wild type [2])?
A: binds

B5: 60-nt ssDNA biotin (ssDNA)
DNA: ATGGTGTGTGTAGGTTAATGTGAGGAGGAGAGGTGAAGAAGGAGGAGAGAAGAAGGAGGC
Q: Does B5 bind (RAD51;BRCA2 TR2 peptide [3]; label: 5' biotin)?
A: binds

B6: 60-bp dsDNA biotin (dsDNA)
DNA 1: ATGGTGTGTGTAGGTTAATGTGAGGAGGAGAGGTGAAGAAGGAGGAGAGAAGAAGGAGGC
DNA 2: GCCTCCTTCTTCTCTCCTCCTTCTTCACCTCTCCTCCTCACATTAACCTACACACACCAT
Q: Does B6 bind (RAD51;BRCA2 TR2 peptide [3]; label: 5' biotin on strand 1, blunt)?
A: binds

B7: 60-nt ssDNA FAM (ssDNA)
DNA: ATGGTGTGTGTAGGTTAATGTGAGGAGGAGAGGTGAAGAAGGAGGAGAGAAGAAGGAGGC
Q: Does B7 bind (RAD51;BRCA2 TR2 peptide [4]; label: 5' FAM)?
A: binds

Q: Does TTTTTTTTTTTCGTGTGGTACTTTTTTTTTTT (ssDNA) [32-nt ssDNA Cy5] bind (RAD51;BRCA2 TR2 peptide [5]; label: 5' Cy5)?
A: binds

B8: 50-nt dsDNA Cy3 (dsDNA)
DNA 1: CCGACTGACGCTCAACATAGGTACCACACGGCGAGCTCGATGCACCTCCA
DNA 2: TGGAGGTGCATCGAGCTCGCGACAAACCTTCTATGTTGAGCGTCAGTCGG
Q: Does B8 bind (RAD51;BRCA2 TR2 peptide [5]; label: 3' Cy3 on strand 1, blunt ends, internal mismatched bubble about 10 nt)?
A: binds

B9: 60-bp dsDNA FAM (dsDNA)
DNA 1: ATGGTGTGTGTAGGTTAATGTGAGGAGGAGAGGTGAAGAAGGAGGAGAGAAGAAGGAGGC
DNA 2: GCCTCCTTCTTCTCTCCTCCTTCTTCACCTCTCCTCCTCACATTAACCTACACACACCAT
Q: Does B9 bind (RAD51;BRCA2 TR2 peptide [4]; label: 5' FAM on strand 1, blunt)?
A: binds
